Assay results from publication PMC3034312.

Substrate: CC(C)=CCC/C(C)=C/CC/C(C)=C/CO[P@@](=O)(O)OP(=O)(O)O
Assay: steady-state kinetics, 30-min radiolabel incubations
Type: biochemical, Streptomyces clavuligerus
Conditions: labelled compound ([1-3H]-FPP, 0.25 to 7.5 μM)

Protein | Km | kcat
SSCG_02150; (−)-δ-cadinene synthase (Streptomyces clavuligerus) (protein) MSTRPVEGSAIWDVLSPHSPHAAAADGKTLVWVEAGELCGHDTAESANLARIRPGLLAAFCHPKATEDDLTLITKWMAWLFLLDDRIDESDLGRDADLLDGHLQDLQGVALGIRTASGPMSRALEEIITQASAGMGDAWQLRFRRNISDYLLACVWQAAHRQAGEFPDPEVFPHWRRAFGAIMPSFDLIERTDGGALPSCVYYSRPYQSLLTAAADLVCWTNDLMTVDKEAAHGDLHNLVLVTEHDRHQDRRTASAAVSAACEQRMRAHTSARRDLTGLTAALGLPDTVRTHADDCAASLLVWVRGHLEWGLETPRYRPGTTGTGTD | 1.4 ± 0.1 µM | 1.14 ± 0.03 × 10^−3 s^−1
SSCG_03688; (+)-T-muurolol synthase (Streptomyces clavuligerus) (protein) MSLNHSDLMFYCPVDDLPHPAASGVNDRTLDWASGQGIPTADRDAGRLRAMAPGLLAARIAPDARGPVLDAFADHHTWLFAFDDEYCDRADGSGITEWASFLARLHRVVETGESALLPGNPYGLALRDIACRLSTYTTPAQLAEWLEALRSYFAALVWERSRRRDDDRLQSLDDYLLLRLRNGAMHTSITLLDTVNGYVLPRELRETPGVRALVEMTALLVSVDNDILSHHKESTSGTREANLLDVLGRTGHTTPGEAVAQAVALRNEIMRQFVRVAERVRTPAAVPELYRFTTGLARWIRANLDFSLTTTRYTGPVTERAALSPHEVPPLSGQGPAPARSDVIGWWWRIPEPLPEPGSDGADTPVRKRRAGDRPPTAGRGGAPHHQRTGPPPPVLPGGITASRSSGLQQSTWRREHR | 2.7 ± 0.3 µM | 1.63 ± 0.09 × 10^−3 s^−1
